# Measured values as given in article PMC10497415, “Lis1 relieves cytoplasmic dynein-1 autoinhibition by acting as a molecular wedge” (Nature Structural & Molecular Biology, 2023).
# Molecular target: the molecule itself
# Experiment: cryo-EM structure; 150 nM biotinylated dynein^E2488Q, 650 nM Lis1, 1.2 mM ATP, 1.2 mM Na3VO4, on streptavidin affinity grids; 4.1 Å map (C2), 3.6 Å after symmetry expansion
protein,measurement,value
"S. cerevisiae Lis1 (Pac1) (natural protein, Lis1 (Pac1), S. cerevisiae; a dimer; only the β-propellers are spoken of in the structure; also called yeast Lis1; source: S. cerevisiae, purified (Ni-NTA, IgG Sepharose, TEV cleavage)) MTNWQQQLPLTDTQKNELDKSVLRYLNWNYKQTVRHEHAQDYESVRHAIVTLSGFLLQESVDRQEFISNNDTSNESMVDIDELLLPKKWNSIVRLQKKIIELEQNTETLVSQIKDLNTQVSELAQFKPTTSNGTSAHNVLKWIPRNLPSCLINVESSVTSVKLHPNLPIVFVATDHGKLYAFDLFNYTIPLASLQSHTKAITSMDVLFTNYTNSSKKNYLVIVTASKDLQIHVFKWVSEECKFQQIRSLLGHEHIVSAVKIWQKNNDVHIASCSRDQTVKIWDFHNGWSLKTFQPHSQWVRSIDVLGDYIISGSHDTTLRLTHWPSGNGLSVGTGHEFPIEKVKFIHFIEDSPEIRFRTPSTDRYKNWGMQYCVSASRDRTIKIWEIPLPTLMAHRAPIPNPTDSNFRCVLTLKGHLSWVRDISIRGQYLFSCADDKSVRCWDLNTGQCLHVWEKLHTGFVNCLDLDVDFDSNVTPRQMMVTGGLDCKSNVFMR",binding result,binds
